From paper PMC3672139

Biological target: T1, RB1 (human) (UniProt P06400)
T1 sequence: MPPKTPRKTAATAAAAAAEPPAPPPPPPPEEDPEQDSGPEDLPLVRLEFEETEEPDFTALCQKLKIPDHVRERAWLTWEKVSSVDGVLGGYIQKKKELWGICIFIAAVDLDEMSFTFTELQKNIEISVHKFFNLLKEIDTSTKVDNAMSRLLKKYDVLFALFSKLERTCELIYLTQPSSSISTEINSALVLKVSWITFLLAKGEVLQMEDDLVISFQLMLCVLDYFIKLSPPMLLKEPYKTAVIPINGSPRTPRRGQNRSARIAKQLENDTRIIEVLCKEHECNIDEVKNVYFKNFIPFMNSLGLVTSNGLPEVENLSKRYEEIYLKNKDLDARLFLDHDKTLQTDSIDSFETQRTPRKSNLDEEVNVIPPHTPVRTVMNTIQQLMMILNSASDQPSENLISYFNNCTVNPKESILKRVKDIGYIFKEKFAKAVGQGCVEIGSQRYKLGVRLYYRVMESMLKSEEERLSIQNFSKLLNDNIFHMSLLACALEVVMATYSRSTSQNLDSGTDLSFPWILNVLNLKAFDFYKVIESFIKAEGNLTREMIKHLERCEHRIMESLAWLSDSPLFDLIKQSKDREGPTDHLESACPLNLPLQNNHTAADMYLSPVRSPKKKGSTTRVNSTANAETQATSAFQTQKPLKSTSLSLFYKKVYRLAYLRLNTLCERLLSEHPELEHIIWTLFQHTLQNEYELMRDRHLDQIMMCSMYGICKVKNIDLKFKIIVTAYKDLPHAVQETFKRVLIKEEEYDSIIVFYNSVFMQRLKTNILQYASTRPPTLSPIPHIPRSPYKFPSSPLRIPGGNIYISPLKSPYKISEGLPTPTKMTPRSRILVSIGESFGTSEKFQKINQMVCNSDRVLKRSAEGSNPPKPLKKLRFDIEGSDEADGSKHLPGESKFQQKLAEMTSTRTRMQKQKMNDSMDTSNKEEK
Assay: SPR
Details: DNA immobilized; 650 mM NaCl; 10 mM Tris-HCl, 150 mM NaCl, 5 mM KCl, pH 7.4; EMSA room temperature 30 min, 12% PAGE in TBE; SPR 25 C (RB1 SPR with 650 mM NaCl)

In the case of CGGGGGGTTTTGGGCGGC [RB1 G4], the Kd is reported as 440 nM.
